B1: MBL-Associated Serine Protease-2 (MASP-2) (protein)
chain: TPLGPKWPEPVFGRLASPGFPGEYANDQERRWTLTAPPGYRLRLYFTHFDLELSHLCEYDFVKLSSGAKVLATLCGQESTDTERAPGKDTFYSLGSSLDITFRSDYSNEKPFTGFEAFYAAEDIDECQVAPGEAPTCDHHCHNHLGGFYCSCRAGYVLHRNKRTCSALCSGQVFTQRSGELSSPEYPRPYPKLSSCTYSISLEEGFSVILDFVESFDVETHPETLCPYDFLKIQTDREEHGPFCGKTLPHRIETKSNTVTITFVTDESGDHTGWKIHYTSTAQPCPYPMAPPNGHVSPVQAKYILKDSFSIFCETGYELLQGHLPLKSFTAVCQKDGSWDRPMPACSIVDCGPPDDLPSGRVEYITGPGVTTYKAVIQYSCEETFYTMKVNDGKYVCEADGFWTSSKGEKSLPVCEPVCGLSARTTGGRIYGGQKAKPGDFPWQVLILGGTTAAGALLYDNWVLTAAHAVYEQKHDASALDIRMGTLKRLSPHYTQAWSEAVFIHEGYTHDAGFDNDIALIKLNNKVVINSNITPICLPRKEAESFMRTDDIGTASGWGLTQRGFLARNLMYVDIPIVDHQKCTAAYEKPPYPRGSVTANMLCAGLESGGKDSCRGDSGGALVFLDSETERWFVGGIVSWGSMNCGEAGQYGVYTKVINYIPWIENIISDF
B2: MBL-Associated Serine Protease-1 (MASP-1) (protein)
chain: HTVELNNMFGQIQSPGYPDSYPSDSEVTWNITVPDGFRIKLYFMHFNLESSYLCEYDYVKVETEDQVLATFCGRETTDTEQTPGQEVVLSPGSFMSITFRSDFSNEERFTGFDAHYMAVDVDECKEREDEELSCDHYCHNYIGGYYCSCRFGYILHTDNRTCRVECSDNLFTQRTGVITSPDFPNPYPKSSECLYTIELEEGFMVNLQFEDIFDIEDHPEVPCPYDYIKIKVGPKVLGPFCGEKAPEPISTQSHSVLILFHSDNSGENRGWRLSYRAAGNECPELQPPVHGKIEPSQAKYFFKDQVLVSCDTGYKVLKDNVEMDTFQIECLKDGTWSNKIPTCKIVDCRAPGELEHGLITFSTRNNLTTYKSEIKYSCQEPYYKMLNNNTGIYTCSAQGVWMNKVLGRSLPTCLPVCGLPKFSRKLMARIFNGRPAQKGTTPWIAMLSHLNGQPFCGGSLLGSSWIVTAAHCLHQSLDPEDPTLRDSDLLSPSDFKIILGKHWRLRSDENEQHLGVKHTTLHPQYDPNTFENDVALVELLESPVLNAFVMPICLPEGPQQEGAMVIVSGWGKQFLQRFPETLMEIEIPIVDHSTCQKAYAPLKKKVTRDMICAGEKEGGKDACAGDSGGPMVTLNRERGQWYLVGTVSWGDDCGKKDRYGVYSYIHHNKDWIQRVTGVRN

Tests used:
[1] = biological target: mannose-binding lectin (MBL), P11226
Sequence of mannose-binding lectin (MBL), P11226 (P11226 21-248): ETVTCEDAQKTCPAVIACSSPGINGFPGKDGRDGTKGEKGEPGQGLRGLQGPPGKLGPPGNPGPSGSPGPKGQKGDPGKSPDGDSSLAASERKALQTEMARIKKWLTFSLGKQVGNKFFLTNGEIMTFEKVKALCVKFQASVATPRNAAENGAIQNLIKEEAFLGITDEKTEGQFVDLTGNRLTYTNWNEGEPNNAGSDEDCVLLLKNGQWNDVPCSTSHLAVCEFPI

Sequence of Ficolin-3, O75636 (O75636 24-299): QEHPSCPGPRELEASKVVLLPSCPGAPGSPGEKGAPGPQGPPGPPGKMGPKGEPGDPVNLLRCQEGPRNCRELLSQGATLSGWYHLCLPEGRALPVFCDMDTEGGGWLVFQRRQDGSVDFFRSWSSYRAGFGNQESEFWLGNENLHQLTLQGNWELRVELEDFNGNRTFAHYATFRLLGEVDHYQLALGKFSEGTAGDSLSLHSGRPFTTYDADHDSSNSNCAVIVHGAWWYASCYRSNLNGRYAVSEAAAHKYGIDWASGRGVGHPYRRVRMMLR

Protein	C4 deposition (OD490-650nm), AcBSA/rFicolin-3 with Ficolin-3 deficient serum (Ficolin-3, O75636)	C4 deposition (OD490-650nm), mannan/rMBL with MBL deficient serum [1]	complement activation (C3 and C4) [1]
B1	Application of rMASP-2 resulted in a strong positive dose dependent enhancement of the C4 deposition via both the Ficolin-3 and MBL activation pathways (FIGS. 25B and 25E)	Application of rMASP-2 resulted in a strong positive dose dependent enhancement of the C4 deposition via both the Ficolin-3 and MBL activation pathways (FIGS. 25B and 25E)	MASP-2 were able to strongly activate both the C3 and C4 complement proteins
B2	–	–	MASP-1 were able to activate both the C3 and C4 complement proteins
